Assay results: the supplement of paper PMC10567573

B1: ZNF511 (parent)
chain: AAPFRFVARPVRFPREHQFFEDGD

Variants of: B1
Experiment: protein stability index of a GFP-peptide fusion (GPS, HEK-293T) (PSI 1-6); higher = more stable
Details: c terminus: a fixed tail appended
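Also: lentivirally expressed fusions sorted by FACS into six bins by GFP to DsRed ratio, PSI derived from sequencing read proportions per bin multiplied by bin number.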

Variant	protein stability index
AAPFRFVARGVRFPREHQFFEDGD [P10G]	1.87
AAPFRFLARPVRFPREHQFFEDGD [V7L]	3.64
AAPFRFVARPVRFPREHQFFEDGG [D24G]	2.08
AAPFRFVARPVRFPRPHQFFEDGD [E16P]	2.55
AAPFRFVARPVRFPRQHQFFEDGD [E16Q]	2.18
AAPFRFVARPVRFPREHQFNEDGD [F20N]	2.56
AAPFRFVARPVRQPREHQFFEDGD [F13Q]	2.1
AAPFRFVARPVRFPREAQFFEDGD [H17A]	2.66
PAPFRFVARPVRFPREHQFFEDGD [A1P]	2.29
AAPFRFVARPWRFPREHQFFEDGD [V11W]	1.78
AAPMRFVARPVRFPREHQFFEDGD [F4M]	3.34
AAPFRFVARLVRFPREHQFFEDGD [P10L]	1.75
AAPFRFVARPVRFYREHQFFEDGD [P14Y]	1.8
AAPFRFVARPVRFPREHQFFSDGD [E21S]	2.24
AAPFRFVARPVRFPREHQSFEDGD [F19S]	2.25
AAPFRQVARPVRFPREHQFFEDGD [F6Q]	4.94
AAPFRFVARPVRFPREHQFFIDGD [E21I]	1.97
AAPFRFVARPVRFPREHQFGEDGD [F20G]	2.59
AAPFRFVARPKRFPREHQFFEDGD [V11K]	1.75
AAPFAFVARPVRFPREHQFFEDGD [R5A]	3.53
AAPFRFVARPVRFPREHQFLEDGD [F20L]	2.96
AAPFRFWARPVRFPREHQFFEDGD [V7W]	3.67
AAPFKFVARPVRFPREHQFFEDGD [R5K]	3.91
AAQFRFVARPVRFPREHQFFEDGD [P3Q]	2.26

Variant	protein stability index
AAPFRFVARPVRFPREHQFFEPGD [D22P]	2.44
AAPFRFVARPVRSPREHQFFEDGD [F13S]	1.86
AAPFRFVARPVRFPIEHQFFEDGD [R15I]	1.98
ANPFRFVARPVRFPREHQFFEDGD [A2N]	3.12
AAPFRFVARPVRHPREHQFFEDGD [F13H]	2.66
AAPFRFVARPVRFPREHQFFEDKD [G23K]	2.53
AAPFRFVARPVRFPLEHQFFEDGD [R15L]	3.44
AAPFRFVARPVRFPREHQFFLDGD [E21L]	1.92
AAPFRFVARPVRFPREHQFQEDGD [F20Q]	2.42
AAPFRFVARPVRFPREHQFFEDLD [G23L]	2.56
AMPFRFVARPVRFPREHQFFEDGD [A2M]	2.11
AAPFRFVARPVRFPRYHQFFEDGD [E16Y]	1.68
AAPFRFVARPVFFPREHQFFEDGD [R12F]	1.54
AAPFRFVARPCRFPREHQFFEDGD [V11C]	2.02
AAPFRFVAMPVRFPREHQFFEDGD [R9M]	1.95
DAPFRFVARPVRFPREHQFFEDGD [A1D]	2.2
AAPFRFVARPNRFPREHQFFEDGD [V11N]	1.95
AAPFRFVARPVRFPKEHQFFEDGD [R15K]	2.2
AAPFRFVALPVRFPREHQFFEDGD [R9L]	1.94
AAPFRFVARPVRFPREHQFFEWGD [D22W]	2.02
AAPFRFVARPVRFPMEHQFFEDGD [R15M]	1.89
AAPFRFVARPVRFPREHRFFEDGD [Q18R]	2.27
AAPFRFVARPVRRPREHQFFEDGD [F13R]	2.32
AAPFRFVARPVRYPREHQFFEDGD [F13Y]	2.29

Variant	protein stability index
AAPFRFVARPVRFPREHQFFEYGD [D22Y]	2.16
AAPFRFVYRPVRFPREHQFFEDGD [A8Y]	2.19
AAPFRFGARPVRFPREHQFFEDGD [V7G]	3.74
AAPFRFVARPVVFPREHQFFEDGD [R12V]	2.23
AAPFRFVARPPRFPREHQFFEDGD [V11P]	2.03
AAAFRFVARPVRFPREHQFFEDGD [P3A]	2.37
IAPFRFVARPVRFPREHQFFEDGD [A1I]	1.82
AAPFRFVARPVRFPREHQFFCDGD [E21C]	1.91
AAPFRFVARPFRFPREHQFFEDGD [V11F]	1.99
AAPFRFVTRPVRFPREHQFFEDGD [A8T]	1.88
AGPFRFVARPVRFPREHQFFEDGD [A2G]	2.36
AAPFRFVARNVRFPREHQFFEDGD [P10N]	1.88
AAPRRFVARPVRFPREHQFFEDGD [F4R]	3.94
AAPFRFVARPVRFPREHQFFFDGD [E21F]	1.65
AAEFRFVARPVRFPREHQFFEDGD [P3E]	1.61
AAPFRFVARPVRFPREHQFFEDTD [G23T]	2.5
AFPFRFVARPVRFPREHQFFEDGD [A2F]	1.85
AAPFREVARPVRFPREHQFFEDGD [F6E]	4.45
AAIFRFVARPVRFPREHQFFEDGD [P3I]	1.34
AAPFRFVARPVRFPREHYFFEDGD [Q18Y]	1.74
AAPFRFVARPVRFPREHQFFEDQD [G23Q]	2.45
AAPFRFVARPVRFPRKHQFFEDGD [E16K]	2.15
AAMFRFVARPVRFPREHQFFEDGD [P3M]	1.62
AAPFRYVARPVRFPREHQFFEDGD [F6Y]	1.69

Variant	protein stability index
AAPFRFVSRPVRFPREHQFFEDGD [A8S]	1.82
AAPFRFVARPDRFPREHQFFEDGD [V11D]	2.14
AAPDRFVARPVRFPREHQFFEDGD [F4D]	4.77
AAPFRFVARPVRFPREQQFFEDGD [H17Q]	2.45
AAPFHFVARPVRFPREHQFFEDGD [R5H]	3.3
AAPFRFVARPVRFPREHDFFEDGD [Q18D]	1.8
AAPFRFVARPVRFPREHQPFEDGD [F19P]	2.63
HAPFRFVARPVRFPREHQFFEDGD [A1H]	1.63
AAPFRFVARPYRFPREHQFFEDGD [V11Y]	1.74
AAPFRFVARPVRLPREHQFFEDGD [F13L]	2.49
AAPFRFVARPVRFPREHGFFEDGD [Q18G]	1.87
AAPFMFVARPVRFPREHQFFEDGD [R5M]	3.25
AAPFRFVARPVRFNREHQFFEDGD [P14N]	2.1
AAPFRFVARPVRFPREHQFFEDGH [D24H]	1.66
AAPFRFVARPVRFPREHWFFEDGD [Q18W]	2.44
AAPFLFVARPVRFPREHQFFEDGD [R5L]	2.63
AAPFRFVARPRRFPREHQFFEDGD [V11R]	2
AAPFRFVARPVRFPREHQFFEDGE [D24E]	3.01
AAPFRFVARPVRFPREHQFFEEGD [D22E]	1.98
AAPFRFVAIPVRFPREHQFFEDGD [R9I]	1.84
AAPFRFVARPVRFPREHQFFGDGD [E21G]	3.51
AAPFRFVARPVRFPRWHQFFEDGD [E16W]	1.79
AAPFRFVARPVRKPREHQFFEDGD [F13K]	2.17
AAPFRFVACPVRFPREHQFFEDGD [R9C]	1.32

Variant	protein stability index
AAPFRFEARPVRFPREHQFFEDGD [V7E]	4.61
ATPFRFVARPVRFPREHQFFEDGD [A2T]	2.28
AAPFRFVAEPVRFPREHQFFEDGD [R9E]	2.21
AAPFRFVARPVRFPHEHQFFEDGD [R15H]	1.84
AAPFRFVARPVRFTREHQFFEDGD [P14T]	1.87
AAPFRFVARPVRFPREHQFFTDGD [E21T]	1.64
AAPFRFVARPVRFPRAHQFFEDGD [E16A]	3.2
AAPCRFVARPVRFPREHQFFEDGD [F4C]	3.4
KAPFRFVARPVRFPREHQFFEDGD [A1K]	2.02
AAPFRFVATPVRFPREHQFFEDGD [R9T]	1.83
AAPFRFVARPVRFPREHSFFEDGD [Q18S]	2.46
AAPFRFVARPVRFPRHHQFFEDGD [E16H]	2.25
AAPFRFVARPVRIPREHQFFEDGD [F13I]	2.48
AAPFRFVARPVRFPREHQFFEDGF [D24F]	1.83
AATFRFVARPVRFPREHQFFEDGD [P3T]	2.1
AAPFRFVARPVRFPREHQFFEDPD [G23P]	2.69
AAPFRFVARPVRFPFEHQFFEDGD [R15F]	2.08
AAPFRFVARPVRFPREHQFFRDGD [E21R]	1.92
AAPARFVARPVRFPREHQFFEDGD [F4A]	4.66
YAPFRFVARPVRFPREHQFFEDGD [A1Y]	4.23
AAPFRFVARPVRTPREHQFFEDGD [F13T]	2.37
AAPFRFVAPPVRFPREHQFFEDGD [R9P]	3.54
AAPFRFVARPVRFPRGHQFFEDGD [E16G]	2.53
AAPFQFVARPVRFPREHQFFEDGD [R5Q]	4.61

Variant	protein stability index
AAPFRFVARPVRFPREHQFFEDGW [D24W]	2.32
EAPFRFVARPVRFPREHQFFEDGD [A1E]	2.04
AAPFRFVAKPVRFPREHQFFEDGD [R9K]	1.95
SAPFRFVARPVRFPREHQFFEDGD [A1S]	2.07
AAPFRFVARPVRFPREHQFFECGD [D22C]	2.08
AAPFRFVARPVRFPRENQFFEDGD [H17N]	2.71
AAPFRFVARPVRFPREHQFHEDGD [F20H]	1.91
AAPFRFVARPERFPREHQFFEDGD [V11E]	1.99
AAPFRFVAQPVRFPREHQFFEDGD [R9Q]	3.03
AAPFRFVARPVRFPREHQFFEMGD [D22M]	1.72
AAPFRFFARPVRFPREHQFFEDGD [V7F]	3.69
AAPFRFVARPVRFPREVQFFEDGD [H17V]	1.94
AAPFRFKARPVRFPREHQFFEDGD [V7K]	3.6
AAPFEFVARPVRFPREHQFFEDGD [R5E]	4.26
AAPFRFVARPVRFPREHQFFEDND [G23N]	2.36
AAPFRFVARPGRFPREHQFFEDGD [V11G]	1.53
AAPFRFVARPVRFPREHQLFEDGD [F19L]	2.61
AAPFRFVARPVRFPREHQFFEDGQ [D24Q]	2.06
AAPFRFVARPVRNPREHQFFEDGD [F13N]	1.95
AAPFRFVARPVRFPREHQKFEDGD [F19K]	2.08
AAPFRFVARPVRFPRIHQFFEDGD [E16I]	2.03
AAPFRFVARPVRFPREHQFFEIGD [D22I]	1.64
AAPFRFVARPIRFPREHQFFEDGD [V11I]	2.08
AAPFRFVARPVRFRREHQFFEDGD [P14R]	2.51

Variant	protein stability index
AAPFRFVARPVRFPREHQFVEDGD [F20V]	2.85
AAPFPFVARPVRFPREHQFFEDGD [R5P]	3.92
TAPFRFVARPVRFPREHQFFEDGD [A1T]	1.22
AAPFRFVARPVRFPREHQQFEDGD [F19Q]	2.46
AAPFRFVARPVRFPREHQFKEDGD [F20K]	2.46
AAPFRFYARPVRFPREHQFFEDGD [V7Y]	3.78
AAPFRFVARPVRFPREHQFIEDGD [F20I]	2.27
AAPFRFVARPVRFPREHQFFESGD [D22S]	2.29
NAPFRFVARPVRFPREHQFFEDGD [A1N]	2.51
AAPFRFVARPHRFPREHQFFEDGD [V11H]	2.04
AAPFRFVARPVRFPREHQFFEDGM [D24M]	1.49
AAPFRFVAWPVRFPREHQFFEDGD [R9W]	1.41
AAPFRFVARPVRFLREHQFFEDGD [P14L]	1.84
AAPFRFVARPVRFPWEHQFFEDGD [R15W]	1.65
ACPFRFVARPVRFPREHQFFEDGD [A2C]	2.05
AAPFRFVARQVRFPREHQFFEDGD [P10Q]	2.08
AAPFRFVARPVRFPREHQFFADGD [E21A]	1.96
AAPFRSVARPVRFPREHQFFEDGD [F6S]	4.26
AAPFRFVARPVWFPREHQFFEDGD [R12W]	1.9
AAPFRWVARPVRFPREHQFFEDGD [F6W]	3.41
AAPFRRVARPVRFPREHQFFEDGD [F6R]	4.03
AAPFRVVARPVRFPREHQFFEDGD [F6V]	3.89
AAPFRFVARPVRFPREHQFPEDGD [F20P]	2.75
AAPFVFVARPVRFPREHQFFEDGD [R5V]	3.58

Variant	protein stability index
AAPFTFVARPVRFPREHQFFEDGD [R5T]	4.17
AAPFRFVARPVRFPRELQFFEDGD [H17L]	2.15
AAGFRFVARPVRFPREHQFFEDGD [P3G]	1.66
AAPYRFVARPVRFPREHQFFEDGD [F4Y]	3.68
AAPFRFVMRPVRFPREHQFFEDGD [A8M]	2.74
AAPFRFVARPVRFPREHLFFEDGD [Q18L]	2.18
AAPFRFVARPVRFPREHQDFEDGD [F19D]	2.48
AAPFRFVARPVRFPREHQFFEDGT [D24T]	1.72
AAPFRFVARPVRFPREKQFFEDGD [H17K]	2.2
AAPFRFVARPVQFPREHQFFEDGD [R12Q]	2.44
AAPFWFVARPVRFPREHQFFEDGD [R5W]	1.89
AAPFRFVARPVRFPREHQFFELGD [D22L]	2.01
AAPFRFVARPVRFPTEHQFFEDGD [R15T]	2.57
AAPFRFVARPVRFPREHQFFEDFD [G23F]	1.61
AAPFRFVARPVRFPREHEFFEDGD [Q18E]	1.96
AAPFRFVARPVRFPREHVFFEDGD [Q18V]	1.9
AAPFRFVARPVRFPREHQFFEDHD [G23H]	2.18
AAPFRFVLRPVRFPREHQFFEDGD [A8L]	2.15
AAPFRFVARPVRFCREHQFFEDGD [P14C]	2.02
AAPFRFVARPVRFPREHQGFEDGD [F19G]	2.8
